Data: patent publication EP2341079A1 (Institut Pasteur, dated 2011)

Assays:
[1] = molecular target: T1, hIgG1 (Sigma-Aldrich reference number I5029) (human, UniProt P01857-1 1-330 = IgG part); assay: SPR, hIgG1 immobilised at low density, C3 injected 16-1000 nM, global fit (Fig. 6)
T1 construct: Purified subclass, bought; also called Human IgG1; human IgG1 subclass

[2] = molecular target: neutravidin (UniProt P02701 25-152); assay: ELISA (data not shown)
[3] = molecular target: streptavidin (UniProt P22629 37-163, limits assumed); assay: ELISA (data not shown)
Sequence of streptavidin (P22629 37-163 limits assumed): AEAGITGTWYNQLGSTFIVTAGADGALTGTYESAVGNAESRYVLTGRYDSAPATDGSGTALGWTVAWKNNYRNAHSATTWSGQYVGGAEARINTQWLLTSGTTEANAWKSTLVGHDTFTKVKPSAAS

[4] = molecular target: T2, hIgG (IgG pool from human serum containing hIgG1, hIgG2, hIgG3, hIgG4; Fluka reference number 56834); assay: SPR (BIAcore 3000), hIgG on CM5 chip, binder injected, 1:1 global fit
T2 construct: Polyclonal mixture from human serum; also called human IgG; Immunoglobulin G from human serum

T1 sequence (P01857 other isoform, or with tags, fused parts or gaps): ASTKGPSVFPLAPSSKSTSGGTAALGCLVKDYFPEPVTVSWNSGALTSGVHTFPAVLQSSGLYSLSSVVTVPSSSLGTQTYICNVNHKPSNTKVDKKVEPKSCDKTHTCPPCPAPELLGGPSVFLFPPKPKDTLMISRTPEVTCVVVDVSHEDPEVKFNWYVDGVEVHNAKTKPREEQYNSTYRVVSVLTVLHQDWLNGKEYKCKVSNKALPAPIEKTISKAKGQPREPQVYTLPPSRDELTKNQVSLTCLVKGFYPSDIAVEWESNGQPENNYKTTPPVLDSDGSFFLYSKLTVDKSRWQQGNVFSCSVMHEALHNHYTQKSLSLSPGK
Sequence of neutravidin (P02701 25-152): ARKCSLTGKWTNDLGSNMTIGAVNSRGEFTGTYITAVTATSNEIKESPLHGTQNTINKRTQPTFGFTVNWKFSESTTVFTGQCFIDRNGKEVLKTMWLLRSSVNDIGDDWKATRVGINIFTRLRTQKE

B1: C3 binder (designed binder)
chain: SVKVKFLLNGEEKEVDTSKIRDVCRQGKNVKFLYNDNGKYGAGNVDEKDAPKELLDMLARAEREKK
notes: Sac7d variant made with a His-tag in E. coli; monomeric by gel filtration; Used free, biotinylated on a streptavidin chip, labelled with AlexaFluor 680, or NHS-coupled to agarose, as said under assay; also called clone C3; not shown: RGS-(His)6 tag from vector pFP1001 (pQE30 derivative)
[1]
  Kd: 94 nM
  koff: 0.051 s⁻¹
  kon: 540000 M⁻¹ s⁻¹
[2]
  binding result: no binding
[3]
  binding result: no binding
[4]
  Kd: 74 nM
  koff: 0.066 s⁻¹
  kon: 890000 M⁻¹ s⁻¹
